Test results as given in the supplement of paper PMC10724198.
± gives the standard deviation of the averaged measurements.

Columns and labels:
Saccharomyces cerevisiae [1] = assay: protein stability index of tFT-peptide fusion (C-terminal peptide) (PSI (0-1 scale)); higher = more stable (slower turnover); conditions: genetic background: wild type; temperature: 30 C
Saccharomyces cerevisiae [2] = assay: as above
Procedure: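 MPS profiling in S. cerevisiae of the tFT-X12 degron library: putative degron peptides plus stable controls, 12 aa, fused to the C-terminus of a sfGFP-mCherry timer. Cells are FACS-sorted into 8 mCherry/sfGFP bins and deep-sequenced. PSI runs from 0 (unstable) to 1 (stable). Backgrounds are wild type, das1Δ and doa10Δ at 30 °C, and wild type, das1Δ, cdc34-1 and cdc53-1 at 37 °C; 2-3 technical replicates each.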

[3] = genetic background: cdc34-1, temperature: 37 C
[4] = genetic background: cdc53-1, temperature: 37 C
[5] = genetic background: das1 deletion, temperature: 30 C
[6] = genetic background: das1 deletion, temperature: 37 C
[7] = genetic background: doa10 deletion, temperature: 30 C
[8] = genetic background: wild type, temperature: 30 C
[9] = genetic background: wild type, temperature: 37 C
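Further: PSI is a weighted mean of sequencing reads over stability bins, variants kept only with over 10 reads, mCherry proximal and sfGFP distal, peptide attached via GGGS linker.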

Sequence | protein stability index (Saccharomyces cerevisiae [1]) | protein stability index (Saccharomyces cerevisiae [2]; [3]) | protein stability index (Saccharomyces cerevisiae [2]; [4]) | protein stability index (Saccharomyces cerevisiae [2]; [5]) | protein stability index (Saccharomyces cerevisiae [2]; [6]) | protein stability index (Saccharomyces cerevisiae [2]; [7]) | protein stability index (Saccharomyces cerevisiae [2]; [8]) | protein stability index (Saccharomyces cerevisiae [2]; [9])
LFIFYCFFFLVR | 0.352 ± 0.051 | 0.27 ± 0.059 | 0.379 ± 0.087 | 0.318 ± 0.043 | 0.395 ± 0.0053 | 0.359 ± 0.029 | 0.294 ± 0.0066 | 0.3824 ± 0.002
LFLEVCFFRLYF | 0.465 ± 0.032 | 0.511 ± 0.055 | 0.555 ± 0.037 | 0.447 ± 0.032 | 0.54 ± 0.011 | 0.46 ± 0.02 | 0.453 ± 0.032 | 0.5086 ± 0.0018
LFLLFLCLSSLF | 0.435 ± 0.021 | 0.561 ± 0.0098 | 0.584 ± 0.012 | 0.487 ± 0.02 | 0.591 ± 0.032 | 0.448 ± 0.016 | 0.436 ± 0.035 | 0.5205 ± 0.0021
LFLLSVNLLLGY | 0.237 ± 0.065 | 0.0581 ± 0.025 | 0.0949 ± 0.028 | 0.138 ± 0.035 | 0.191 ± 0.035 | 0.105 ± 0.0095 | 0.112 ± 0.04 | 0.163 ± 0.0081
LFLPFLPTLALL | 0.231 ± 0.012 | 0.795 ± 0.029 | 0.823 ± 0.013 | 0.686 ± 0.032 | 0.7901 ± 0.0056 | 0.598 ± 0.021 | 0.623 ± 0.022 | 0.7359 ± 0.0023
LFLYDFIALRCS | 0.415 ± 0.038 | 0.46 ± 0.016 | 0.55 ± 0.015 | 0.405 ± 0.025 | 0.566 ± 0.032 | 0.2104 ± 0.00034 | 0.24 ± 0.024 | 0.413 ± 0.012
LFRGVWYYFLVR | 0.507 ± 0.028 | 0.486 ± 0.041 | 0.5274 ± 0.0022 | 0.445 ± 0.021 | 0.61 ± 0.0087 | 0.504 ± 0.029 | 0.438 ± 0.029 | 0.586 ± 0.019
LFSSFFVFRLLV | 0.146 ± 0.011 | 0.322 ± 0.031 | 0.432 ± 0.039 | 0.455 ± 0.028 | 0.581 ± 0.0041 | 0.0949 ± 0.016 | 0.0904 ± 0.029 | 0.0847 ± 0.0039
LFVFVLAGFCCV | 0.381 ± 0.0073 | 0.352 ± 0.0073 | 0.436 ± 0.017 | 0.32 ± 0.025 | 0.485 ± 0.011 | 0.287 ± 0.0059 | 0.308 ± 0.039 | 0.432 ± 0.041
LFVPVFSFGFVC | 0.226 ± 0.011 | 0.485 ± 0.0071 | 0.558 ± 0.0077 | 0.415 ± 0.027 | 0.589 ± 0.009 | 0.121 ± 0.02 | 0.145 ± 0.014 | 0.237 ± 0.015
LFWWCMVFISLI | 0.3 ± 0.019 | 0.3069 ± 0.0013 | 0.37 ± 0.015 | 0.285 ± 0.041 | 0.413 ± 0.0096 | 0.212 ± 0.017 | 0.231 ± 0.029 | 0.3395 ± 0.00099
LFYVCPFVCFLC | 0.324 ± 0.058 | 0.554 ± 0.044 | 0.6288 ± 0.001 | 0.516 ± 0.017 | 0.61052 ± 9.9e-05 | 0.307 ± 0.0078 | 0.335 ± 0.026 | 0.438 ± 0.033
LGFFPSPVLCVF | 0.275 ± 0.02 | 0.104 ± 0.056 | 0.104 ± 0.027 | 0.197 ± 0.024 | 0.209 ± 0.0036 | 0.171 ± 0.0087 | 0.193 ± 0.018 | 0.175 ± 0.0038
LGGVGTLVHCFV | 0.452 ± 0.053 | 0.615 ± 0.026 | 0.635 ± 0.016 | 0.36 ± 0.022 | 0.607 ± 0.0081 | 0.351 ± 0.013 | 0.375 ± 0.014 | 0.597 ± 0.02
LGRYHPWLLFLC | 0.114 ± 0.027 | 0.261 ± 0.011 | 0.451 ± 0.021 | 0.457 ± 0.035 | 0.614 ± 0.0077 | 0.0687 ± 0.016 | 0.0711 ± 0.025 | 0.104 ± 0.0076
LHSDHLRIILRI | 0.514 ± 0.023 | 0.5966 ± 0.0013 | 0.63 ± 0.036 | 0.567 ± 0.036 | 0.659 ± 0.036 | 0.382 ± 0.018 | 0.376 ± 0.0098 | 0.576 ± 0.022
LIAGTRRIPLFI | 0.406 ± 0.039 | 0.593 ± 0.048 | 0.638 ± 0.022 | 0.515 ± 0.043 | 0.665 ± 0.0049 | 0.225 ± 0.0037 | 0.261 ± 0.053 | 0.466 ± 0.015
LISGVCLRVKVG | 0.346 ± 0.046 | 0.55 ± 0.031 | 0.597 ± 0.017 | 0.452 ± 0.029 | 0.6276 ± 0.00027 | 0.16 ± 0.016 | 0.193 ± 0.015 | 0.3637 ± 0.0019
LKFSLLLPVQVI | 0.3606 ± 0.0013 | 0.327 ± 0.014 | 0.3735 ± 0.0026 | 0.301 ± 0.03 | 0.403 ± 0.0053 | 0.253 ± 0.0088 | 0.283 ± 0.025 | 0.337 ± 0.0053
